Data taken from US7803571B2, “Method for identifying IRS inhibitors or agonists” (Sanfoi-Aventis Deutschland GmbH, priority 2003, dated 2010).
Changes are numbered by the printed parent chain. Numbers in names are those of the source.

B1: rIRS-1^449-664: glutathione S-transferase (GST) fusion protein containing the amino acids 449-664 of rat IRS-1 (SEQ ID NO: 17) (protein)
chain: PPARGEEELSNYICMGGKGASTLTAPNGHYILSRGGNGHRYIPGATMGTSPALTGDEAAGAADLDNRFRKRTHSAGTSPTISHQKTPSQSSVVSIEEYTEMMPAAYPPGGGSGGRLPGYRHSAFVPTHSYPEEGLEMHHLERRGGHHRPDSSNLHTDDGYMPMSPGVAPVPSNRKGNGDYMPMSPKSVSAPQQIINPIRRHPQRVDPNGYMMMSPS
modifications: left off: a dimerising Fc or GST
B2: S570A: serine 570 to alanine mutant of rIRS-1^449-664 GST fusion protein (protein, UniProt P35570 449-664, looked up, variant S570A)
chain: B1 chain with S122A
modifications: GST fusion
notes: serine 570 to alanine mutant of rIRS-1^449-664 GST fusion protein
B3: S612A: serine 612 to alanine mutant of rIRS-1^449-664 GST fusion protein (protein, UniProt P35570 449-664, looked up, variant S612A)
chain: B1 chain with S164A
modifications: GST fusion
notes: serine 612 to alanine mutant of rIRS-1^449-664 GST fusion protein

Legend:
[1] = target: T1, p85α (Bos taurus, UniProt P23727); assay: GST pull down assay: interaction of rIRS-1^449-664 with p85α; type: binding, bovine; details: for p85α binding after PKC-ζ treatment, % of control: insulin-stimulated control value set as 100%, n=3
T1 construct: GST (N, cleaved yes); made in house; host or cells: Escherichia coli BL21
T1 sequence (P23727 whole entry): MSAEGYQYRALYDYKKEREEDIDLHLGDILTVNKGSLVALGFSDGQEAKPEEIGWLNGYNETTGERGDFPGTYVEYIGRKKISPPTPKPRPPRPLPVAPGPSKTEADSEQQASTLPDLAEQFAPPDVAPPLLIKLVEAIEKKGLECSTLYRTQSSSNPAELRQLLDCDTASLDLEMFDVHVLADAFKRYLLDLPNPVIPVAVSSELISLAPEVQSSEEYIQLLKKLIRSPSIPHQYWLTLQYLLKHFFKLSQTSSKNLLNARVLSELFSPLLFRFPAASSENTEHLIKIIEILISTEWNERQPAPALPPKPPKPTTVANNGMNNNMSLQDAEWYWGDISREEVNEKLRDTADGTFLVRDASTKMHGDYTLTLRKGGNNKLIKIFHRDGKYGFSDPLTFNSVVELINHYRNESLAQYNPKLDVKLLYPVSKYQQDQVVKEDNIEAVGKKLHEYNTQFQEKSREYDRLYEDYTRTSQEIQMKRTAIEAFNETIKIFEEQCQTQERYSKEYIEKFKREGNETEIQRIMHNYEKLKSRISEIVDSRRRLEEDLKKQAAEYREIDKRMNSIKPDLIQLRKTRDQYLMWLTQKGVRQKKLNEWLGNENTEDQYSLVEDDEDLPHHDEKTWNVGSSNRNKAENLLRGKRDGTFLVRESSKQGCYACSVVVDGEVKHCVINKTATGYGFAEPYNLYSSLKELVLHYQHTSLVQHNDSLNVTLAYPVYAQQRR
Method: In vitro phosphorylated rIRS-1^449-664 was incubated with glutathione sepharose beads on a rotator for 1 h at 4° C. Pellets were washed three times with binding buffer (50 mM Tris (pH 7.4), 150 mM NaCl, 1% (v/v) Nonidet P-40, 1 mM EDTA, 1 mM NaF, 1 mM Na3VO4). Then 0.5 μg recombinant p85α was added and incubation was continued for 2 h at 4° C. After three times washing, the bound proteins were eluted with 20 μl of 2× sample buffer and separated by SDS-PAGE.
Proteins were separated by SDS-PAGE using 8-18% gradient gels followed by transfer to nitrocellulose in a semi-dry blotting apparatus. The membrane was then blocked 60 min in Tris-buffered saline containing 0.05% Tween 20 and 1% BSA or 5% non fat dry milk and probed with appropriate antibodies (anti-IRS-1, anti-pTyr, anti-p85α). After extensive washing, the membranes were incubated with horseradish peroxidase-conjugated secondary antibodies, again washed and then the protein bands were visualized by the enhanced chemiluminescence (ECL) method on a Lumilmager workstation (Boehringer, Mannheim, Germany). All blots were quantified using the Lumilmager software. Significance of reported differences was evaluated by using the null hypothesis and t statistics for unpaired data. A p value less than 0.05 was considered to be statistically significant.

[2] = target: T2, insulin receptor (Rattus norvegicus, UniProt P15127); assay: In vitro phosphorylation assay: tyrosine phosphorylation of rIRS-1^449-664 by insulin receptor; type: biochemical
T2 construct: from tissue; host or cells: rat liver
T2 sequence (P15127 27-759 limits assumed): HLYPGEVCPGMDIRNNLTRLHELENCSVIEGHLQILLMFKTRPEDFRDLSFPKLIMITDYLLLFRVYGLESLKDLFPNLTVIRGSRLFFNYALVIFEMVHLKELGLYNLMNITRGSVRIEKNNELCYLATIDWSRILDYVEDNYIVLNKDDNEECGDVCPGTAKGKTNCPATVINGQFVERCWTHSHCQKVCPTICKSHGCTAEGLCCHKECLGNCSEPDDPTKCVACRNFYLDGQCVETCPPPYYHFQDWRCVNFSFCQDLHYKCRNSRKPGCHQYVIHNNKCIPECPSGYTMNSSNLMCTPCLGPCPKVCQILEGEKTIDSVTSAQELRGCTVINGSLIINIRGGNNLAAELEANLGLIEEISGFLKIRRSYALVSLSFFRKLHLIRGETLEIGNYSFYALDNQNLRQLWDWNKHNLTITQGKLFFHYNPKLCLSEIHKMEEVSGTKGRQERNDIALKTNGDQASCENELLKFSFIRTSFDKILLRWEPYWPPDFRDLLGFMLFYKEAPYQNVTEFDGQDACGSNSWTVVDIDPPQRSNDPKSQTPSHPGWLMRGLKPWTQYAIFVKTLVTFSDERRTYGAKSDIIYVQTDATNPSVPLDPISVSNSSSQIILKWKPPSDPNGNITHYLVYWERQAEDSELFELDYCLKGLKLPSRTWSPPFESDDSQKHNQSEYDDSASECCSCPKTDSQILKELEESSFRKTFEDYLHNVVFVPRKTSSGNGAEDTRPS
Method: Rat liver was rapidly removed, immediately frozen in liquid nitrogen and processed as described (41). Briefly, 3.5 vol/wt of an ice-cold buffer consisting of 50 mM Hepes (pH 7.4), 1% Triton X-100 and 2× Complete Protease Inhibitors was added and the liver was homogenized using an Ultraturrax and a Potter-Elvehjem homogenizer, followed by centrifugation at 10,000×g for 10 min at 4° C. The resultant supernatant was slowly stirred at room temperature for 60 min, then again centrifuged at 100,000×g for 90 min at 4° C. The supernatant was then applied to an agarose-bound wheat germ agglutinin (WGA) column. The column was washed with 50 mM Hepes (pH 7.4), 0.1% Triton X-100, and bound glycoproteins were eluted from the WGA column with this buffer containing 0.3 M N-acetylglucoseamine.
For rIRS-1^449-664 phosphorylation by insulin receptor, […] of the WGA-purified glycoprotein fraction was preincubated for 30 min at 30° C. with 100 nM of insulin in a phosphorylation buffer containing 20 mM Hepes (pH 7.4), 1 mM DTT, 10 mM MgCl2, 100 μg/ml bovine serum albumin, 0.2 mM Na3VO4, 1.7 mM CaCl2, 0.6 mg/ml phosphatidylserine, and 0.5 μg/ml okadaic acid. Autophosphorylation was initiated by the addition of ATP at a concentration of 50 μM and continued for 10 min at 30° C. Substrate phosphorylations were initiated by addition of equal volumes of […] (1 μg) with or without pre-treatment (30 min) by the PKC isoforms in the same buffer in the presence of 50 μM ATP and was allowed to proceed for 10 min at 30° C. in a final volume of 50 μl. The reaction was terminated by the addition of 6× sample buffer (0.35 M Tris-HCl (pH 6.8), 10.28% (w/v) SDS, 36% (v/v) glycerol; 0.6 M DTT, 0.012% (w/v) bromphenol blue) and boiling for 5 min. Proteins were separated by SDS-PAGE and analyzed by immunodetection with an anti-phosphotyrosine antibody after transfer to nitrocellulose. Serine/threonine phosphorylation of rIRS-1^449-664 by different PKC isoforms was assessed by incubating 1 μg rIRS-1^449-664 with 0.5 μg PKC-rb or PKC-ζ in phosphorylation buffer for 30 min at 30° C. in the presence of 50 μM ATP plus 2 μCi [γ-^32P]ATP in a volume of 20 μl. Proteins were resolved by SDS-PAGE and the stained and dried gels were subjected to autoradiography. The extent of phosphate incorporation was determined by Cerenkov counting of excised fragments.
Proteins were separated by SDS-PAGE using 8-18% gradient gels followed by transfer to nitrocellulose in a semi-dry blotting apparatus. […] All blots were quantified using the Lumilmager software. Significance of reported differences was evaluated by using the null hypothesis and t statistics for unpaired data. […]

Molecule	Interaction of p85α with the tyrosine phosphorylated fusion protein ([1]; after insulin-stimulated tyrosine phosphorylation by IR)	Insulin-stimulated tyrosine phosphorylation, stimulation over basal ([2]; WGA-purified insulin receptor, 100 nM insulin, n=10) [fold]	Reduction of tyrosine phosphorylation by IR after PKC-ζ pretreatment ([2]; wild type and mutant fusion proteins as substrate, relative to insulin-stimulated control)	p85α binding after PKC-ζ treatment, % of control [1]
B1	significant increase	8.8±1.1	30-40%	–
B2	–	–	–	43±4 % of control
B3	–	–	–	28±3 % of control
